Assay [1] has as its target Angiotensin-(1-7) Mas receptor fused to enhanced yellow fluorescent protein (UniProt P04201). The experiment in a line: radioligand binding.
The target in assay [2] is B2R-MasR heteromer on cells co-transfected with B2R-CFP and MasR-YFP (UniProt P30411). The experiment in a line: radioligand binding.
UniProt P30411, sequence (P30411 whole entry, chain 1 of 2): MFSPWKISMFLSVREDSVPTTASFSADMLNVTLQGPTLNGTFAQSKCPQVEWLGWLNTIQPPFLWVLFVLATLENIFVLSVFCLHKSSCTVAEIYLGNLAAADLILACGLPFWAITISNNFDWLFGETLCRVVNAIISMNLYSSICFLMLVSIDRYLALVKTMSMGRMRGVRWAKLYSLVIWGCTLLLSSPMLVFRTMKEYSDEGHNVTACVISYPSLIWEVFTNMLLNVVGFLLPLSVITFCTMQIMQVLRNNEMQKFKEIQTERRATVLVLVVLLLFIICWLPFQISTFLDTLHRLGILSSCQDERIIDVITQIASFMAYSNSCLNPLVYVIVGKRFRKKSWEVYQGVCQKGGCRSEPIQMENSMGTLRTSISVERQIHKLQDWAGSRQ
UniProt P30411, sequence (P04201 whole entry, chain 2 of 2, further chain): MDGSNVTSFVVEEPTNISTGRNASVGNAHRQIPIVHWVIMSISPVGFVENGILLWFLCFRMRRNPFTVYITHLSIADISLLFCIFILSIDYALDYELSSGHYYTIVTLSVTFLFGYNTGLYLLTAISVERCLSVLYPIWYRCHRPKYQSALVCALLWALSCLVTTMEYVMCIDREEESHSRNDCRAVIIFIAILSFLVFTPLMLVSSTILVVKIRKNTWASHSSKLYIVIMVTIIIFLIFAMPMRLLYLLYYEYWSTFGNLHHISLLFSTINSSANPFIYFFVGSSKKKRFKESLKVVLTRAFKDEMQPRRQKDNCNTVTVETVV

UniProt P04201, sequence (P04201 whole entry, the tested form may be a part): as the sequence (P04201 whole entry, chain 2 of 2, further chain) above

For Angiotensin-(1-7) (peptide), the Kd in assay [1] came to 1.15 nM; in assay [2], 0.139 nM.

What is called Kd is the free concentration of one partner at which half of the binding sites on the other are occupied at equilibrium, for simple one-to-one binding.

Values taken from PMC5016258.
